Reference: paper PMC6534667

Target: scFv PL2-6 (single-chain antibody variable fragment);Histone octamer H3 (H2A, H2B, H3, H4) (Mus musculus (mouse mAb PL2-6);Drosophila) (UniProt P84051+P02283+P02299+P84040)
Assay: ITC
Conditions: ITC: 20 mM Tris-HCl pH 7.4, 50 mM NaCl, 1 mM EDTA, 25 C; EMSA: 10 mM Tris pH 7.4, 1 mM EDTA, 30 mM NaCl, 1% Ficoll 6000, on ice 10 min, 5% acrylamide gel in …

With 147 bp Widom 601 DNA (W601) the Kd was 190 nM.
